experiment: yeast display, Sf9 membrane polyspecificity reagent, FACS + sequencing; frameworks hold sequencing errors
Outline: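 A nanobody's polyreactivity label depends on the gate it was sorted from. Yeast display cells were stained with 10% biotinylated, detergent-solubilized Sf9 membrane reagent for 1 hour at 4 °C, enriched on streptavidin microbeads and sorted by FACS. The low and high (top ~1%) gates were set on anti-HA fluorescence for expression and streptavidin fluorescence for reagent binding.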

Row | Sequence | polyreactivity (PSR sort gate)
1 | QVQLVESGGGLVQAGGSLRLSCAASGSTFSYYDMGWYRQAPGKERELVAAISWNGGTTYYADSVKGRFTISRDNAKNTVYLQMNSLKPEDTAVYYCAATWDFYWAPDDSWGQGTQVTVSS | low polyreactivity
2 | QVQLVESGGGLVQAGGSLRLSCAASGSTFSYYRMGWYRQATGTERELVASIDYSGESTYYADSVKGRFTISLDNAKNTVYLQMNSLNPEDTAVYYCAADDYPWNRYEYWGQGTQVTVSS | low polyreactivity
3 | QVQLVESGGGLVQAGGSLRLSCAASGSTFTANAMGWYRQAPGKERELVAAITNSDGSTYYADSVKGRFTISRDNAKNTVYLQMNSLKPEETAVYYCAKDYYACYWEMDYWGLGTQVTVSS | low polyreactivity
4 | QVQLVESGGGLVQAGGSLRLSCAASGSTFTAYAMGWYRQAPGKERELVAAINWSGGTTYYADSVKGRFTISRDNAKNTVYLQMNSLKPEDTAVYSCAVDGNFFGEVRPYDYWGQGTQVTVSS | low polyreactivity
5 | QVQLVESGGGLVQAGGSLRLSCAASGSTFTAYAMGWYRQAPGKERELVADISDSGGSTYYADSVKGRFTISRDNAKNTVYLQMNSLKPEDTAVYYCAAAWVFKKGFGTEMDYWGQGTQVTVSS | low polyreactivity
6 | QVQLVESGGGLVQAGGSLRLSCAASGSTFTAYVMGWYRQAPGKERELVAAISRSGGRTYYADSVKGRFTISRDNAKNTVYLQMNSLKPEDTAVYYCAARSGPLAYDYWGQGTQVTVSS | high polyreactivity
7 | QVQLVESGGGLVQAGGSLRLSCAASGSTFTCYAMGWNRQAPRKERELVADITWRDGSTYYADSVKGRFTISRDNAKNTVYLQMNSLKPEDTAVYYCNGRRDYDMDWGQVTQVTVSS | high polyreactivity
8 | QVQLVESGGGLVQAGGSLRLSCAASGSTFTDYDMGWYRQAPGKERELVAAITSGGSTNYADSVKGRFTISRDNAKNTVYLQMNSLKPEDTAVYYCKVRPYGFDSEFDYWGQGTQVTVSS | low polyreactivity
9 | QVQLVESGGGLVQAGGSLRLSCAASGSTFTEYAMGWYRQAPGKERELVAGISSDGSTKYADSVKGRFTISRDNAKNTVYLQMNSLKPEDTAVYYCNKDQSYAKYDYWGQGTQVTVSS | low polyreactivity
10 | QVQLVESGGGLVQAGGSLRLSCAASGSTFTFYTMGWYRQAPGKERELVAAITISAGSTYYADSVKGRFTFSRDNAKNTVYLQMNSLKPEDSAVYYCAADTYAHWGYYGSYYRDDYWGQGTQVTVSS | low polyreactivity
11 | QVQLVESGGGLVQAGGSLRLSCAASGSTFTGYALGWYRQAPGKEREFVATITKRGGRTYYADSVKGRFTISRDNAKNTVYLQMHSLKPEDTAVYYCARDQGKLVVPYDYWGQGTQVTVSS | high polyreactivity
12 | QVQLVESGGGLVQAGGSLRLSCAASGSTFTGYAMGWYRQAPGKERELVAAISRSGGSTSYADSVKGRFTISRDNAKNTVYLQMNSLKPEDTAVDYCAAQVQGTTRAKQRGGIGELDYWGQGTQVTVSS | low polyreactivity
13 | QVQLVESGGGLVQAGGSLRLSCAASGSTFTGYTMGWYRQAPGKERELVASIRTYYADSVKGRFTISRDNAKNTVYLQMNSLKPEDTAVYYCAAKPGRYADYDYNSWGQGTQVTVSS | low polyreactivity
14 | QVQLVESGGGLVQAGGSLRLSCAASGSTFTINAKGWYRQATGKETELVAAITDSAGNTYYADSVKGRFTISRDNAKNTVYLQMNSLKPEDTAVYYCAAAWPSTGLLYVLGYSGYGYWGQGTQVTVSS | low polyreactivity
15 | QVQLVESGGGLVQAGGSLRLSCAASGSTFTINAMGWYRQAPGKERELVAAISRSGGSTFYADSVKGRFTISRDNAKNTVYLQMNSLKPEDTAVYYCAAGYRGTAYRYGYCGQGTQVTVSS | high polyreactivity
16 | QVQLVESGGGLVQAGGSLRLSCAASGSTFTLYAKGWYRQAPGKERELVAAINGAGSTYYADSVKGRFTISRDNAKNTVYLQMNSLKPEDTAVYYCAKDLQYGWYDYWGQGTQVTVSS | low polyreactivity
17 | QVQLVESGGGLVQAGGSLRLSCAASGSTFTLYVMGWYRQAPGKERELVAAISSNGGRTYYADSVKGRFTISRDNAKNTVYLQMNSLKPEDTAVYYCAAGKIGRYHYDYWGQGTQVTVSS | high polyreactivity
18 | QVQLVESGGGLVQAGGSLRLSCAASGSTFTLYVMGWYRQATGKERELVAAISSNGGRTYYADSVKGRFTISRDNAKNTVYLQMTSLKPEDTAVYYCAKLVSLAGRIYGYWGQGTQVTVSS | high polyreactivity
19 | QVQLVESGGGLVQAGGSLRLSCAASGSTFTNYAMGWYRQAPRKERELVAAITSVGSTYYADSVKGRFTISRDNAKNTVYLQMNSLKQEDTAVYYCNVVYRDQYNYWGQGTQVTVSS | low polyreactivity
20 | QVQLVESGGGLVQAGGSLRLSCAASGSTFTPNAMGWYRQVPGKERELVASITIGGSTYADSVKGRFTISRDNAKNTVYLQMNSLKPEDTAVYYCNADWNWYPFLYSRMDYWGQGTQVTVSS | low polyreactivity
21 | QVQLVESGGGLVQAGGSLRLSCAASGSTFTPYAMGWSRKAPGKERELVAVIRWRGGRTYYADSVQGRFTISRDNAKNTVYLQMNSLKPEDTAVYYCAAGGSQGAGGYGYYGYDYWGQGTQETVSS | low polyreactivity
22 | QVQLVESGGGLVQAGGSLRLSCAASGSTFTPYAMGWYRPAPGKEREFVAAITSIGGSTYYADSVKGRFTISRDHAKFTVYLQMNSLKPEDTAVYYCAADYYEWSLWNDYWGQGTQVTVSS | high polyreactivity
23 | QVQLVESGGGLVQAGGSLRLSCAASGSTFTPYAMGWYRPAPGKERELVATISSRGGSTSYADSVKGRFTISRDNAKNTVYLQMNSLKPEDTAVYYCARKVRRVARIMYYWGQGTQVTVSS | high polyreactivity
24 | QVQLVESGGGLVQAGGSLRLSCAASGSTFTPYAMGWYRQAPGKERELVAAINGGGTRTYYADSVKGRFTISRDNAKNTVYLQMNSLKPEDTAVYYCAARTSTSRSYPYNYWGQGTQVTVSS | high polyreactivity
25 | QVQLVESGGGLVQAGGSLRLSCAASGSTFTPYGMGWYRKAPGKERELVAAITVSGGRTYDADSVKGRFTISRDNAKNTVYLQMNSLKPEDTAVYYCAAVYLRGDGEYDYWGQGTQVTVSS | low polyreactivity
26 | QVQLVESGGGLVQAGGSLRLSCAASGSTFTRNAKGWYRQAPGKERELVAAITSSGSRTYYADSVKGRFTISRDNAKNTVYLQMNRLKPEDTAVYYCAGLGDTRYVAMDHWGQGTQVTVSS | high polyreactivity
27 | QVQLVESGGGLVQAGGSLRLSCAASGSTFTRNAMGWYRQAPGKERELVAAISSRGTSTYYADSVKGRFTISRDNAKNTVYLQMNSLKPEDTAVYYCAAVGVKQYLGGNPFDYWGQGTQVTVSS | high polyreactivity
28 | QVQLVESGGGLVQAGGSLRLSCAASGSTFTRYAMGWYRQAPGKERELVAAISLSGGDTYYADSVKGRFTISRDNAKNTVYLQMNSLKPEDTAVYYCAARWGYRGYSYEYWGQGTQVTVSS | high polyreactivity
29 | QVQLVESGGGLVQAGGSLRLSCAASGSTFTRYAMGWYRQAPGKERELVAAISSSAGRTYYADSVKGRFTISRDYAKNTVYLQMKSLKPEDTAVYYCAATRVYAGAQYDYWGQGTKVTVSS | high polyreactivity
30 | QVQLVESGGGLVQAGGSLRLSCAASGSTFTSYAIGWYRQAPGKERELVAAIRYSGGRTYYADSVKGRFTISRDNAKNTVYFQMNSLKPEDTAVYYCAARSKVYKVGYNYWGQGTQVTVSS | high polyreactivity

— the nanobody polyreactivity screen of Harvey et al. (2022)
